PMC6468047, “Cannabinoid CB1 and CB2 Receptor-Mediated Arrestin Translocation: Species, Subtype, and Agonist-Dependence” (Frontiers in Pharmacology, 2019)

Assays:
[1] = molecular target: human D2 dopamine receptor (3HA-hD2R) (human) (UniProt P14416)
[2] = molecular target: human vasopressin receptor 2 (3HA-hV2R) (human) (UniProt P30518)
[3] = molecular target: human cannabinoid receptor 2 (3HA-hCB2) (human) (UniProt P34972)
[4] = molecular target: human cannabinoid receptor 1 (pplss-3HA-hCB1) (human) (UniProt P21554)
CB2 (hCB2) [5] = molecular target: T1, CB2 (hCB2) (Homo sapiens, UniProt P34972); assay: BRET human β-arrestin-2 plasma membrane translocation; type: cell-based; conditions: read-out: CB2 / logEC50 ± SEM (converted)
T1 construct: gene CNR2; 3HA-hCB2 in pEF4a: N-terminal 3xHA tag, untagged C-terminus; transient in HEK-293 with Rluc8-arrestin and mem-linker-Citrine reporters

CB2 (hCB2) [6] = molecular target: T1, CB2 (hCB2); assay: BRET human β-arrestin-1 plasma membrane translocation; type: cell-based; conditions: 10 µM; HEK-293, 37 °C, single concentration 10 μM, no GRK2 co-expression
Text: BRET human β-arrestin-1 plasma membrane translocation on CB2 (hCB2)

Sequence of human cannabinoid receptor 1 (pplss-3HA-hCB1) (human) (P21554 whole entry): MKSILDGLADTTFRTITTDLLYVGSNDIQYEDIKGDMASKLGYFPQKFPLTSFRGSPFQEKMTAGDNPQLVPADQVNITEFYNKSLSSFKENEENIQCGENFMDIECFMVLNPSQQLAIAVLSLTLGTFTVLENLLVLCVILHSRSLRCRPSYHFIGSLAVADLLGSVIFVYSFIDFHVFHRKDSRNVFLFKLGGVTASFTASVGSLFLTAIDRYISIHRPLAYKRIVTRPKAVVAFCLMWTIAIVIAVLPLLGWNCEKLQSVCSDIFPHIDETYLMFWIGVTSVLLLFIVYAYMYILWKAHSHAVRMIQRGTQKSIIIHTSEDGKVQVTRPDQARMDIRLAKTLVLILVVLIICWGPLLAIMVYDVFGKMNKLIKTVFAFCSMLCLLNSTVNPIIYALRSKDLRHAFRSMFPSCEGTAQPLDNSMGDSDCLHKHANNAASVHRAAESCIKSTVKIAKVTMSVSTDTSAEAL
Sequence of human cannabinoid receptor 2 (3HA-hCB2) (human) (P34972 whole entry): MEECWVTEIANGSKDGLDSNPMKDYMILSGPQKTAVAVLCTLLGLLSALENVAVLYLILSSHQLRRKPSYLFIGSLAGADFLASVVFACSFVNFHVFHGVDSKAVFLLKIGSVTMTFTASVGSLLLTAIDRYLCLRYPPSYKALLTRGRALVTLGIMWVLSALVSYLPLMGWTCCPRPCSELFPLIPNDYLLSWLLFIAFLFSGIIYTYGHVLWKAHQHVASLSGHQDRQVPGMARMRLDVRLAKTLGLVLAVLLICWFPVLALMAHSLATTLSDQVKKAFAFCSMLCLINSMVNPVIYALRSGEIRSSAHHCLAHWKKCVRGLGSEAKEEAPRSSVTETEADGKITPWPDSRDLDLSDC
Sequence of bovine β-arrestin-1 (Rluc8-bβ-arrestin-1-Sp1) (P17870 whole entry): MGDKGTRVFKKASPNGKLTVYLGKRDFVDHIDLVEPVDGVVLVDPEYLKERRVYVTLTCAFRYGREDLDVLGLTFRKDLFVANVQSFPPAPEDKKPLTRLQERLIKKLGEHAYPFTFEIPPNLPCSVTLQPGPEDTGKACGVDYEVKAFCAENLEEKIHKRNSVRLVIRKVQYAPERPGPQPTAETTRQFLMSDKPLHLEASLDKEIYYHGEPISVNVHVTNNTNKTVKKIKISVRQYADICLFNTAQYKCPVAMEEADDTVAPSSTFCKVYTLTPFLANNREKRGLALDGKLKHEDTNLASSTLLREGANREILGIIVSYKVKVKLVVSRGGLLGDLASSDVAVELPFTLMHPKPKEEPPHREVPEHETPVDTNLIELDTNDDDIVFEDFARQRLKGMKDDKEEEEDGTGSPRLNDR
T1 sequence (P34972 whole entry): as the sequence (P34972 whole entry) above
Sequence of human D2 dopamine receptor (3HA-hD2R) (human) (P14416 whole entry): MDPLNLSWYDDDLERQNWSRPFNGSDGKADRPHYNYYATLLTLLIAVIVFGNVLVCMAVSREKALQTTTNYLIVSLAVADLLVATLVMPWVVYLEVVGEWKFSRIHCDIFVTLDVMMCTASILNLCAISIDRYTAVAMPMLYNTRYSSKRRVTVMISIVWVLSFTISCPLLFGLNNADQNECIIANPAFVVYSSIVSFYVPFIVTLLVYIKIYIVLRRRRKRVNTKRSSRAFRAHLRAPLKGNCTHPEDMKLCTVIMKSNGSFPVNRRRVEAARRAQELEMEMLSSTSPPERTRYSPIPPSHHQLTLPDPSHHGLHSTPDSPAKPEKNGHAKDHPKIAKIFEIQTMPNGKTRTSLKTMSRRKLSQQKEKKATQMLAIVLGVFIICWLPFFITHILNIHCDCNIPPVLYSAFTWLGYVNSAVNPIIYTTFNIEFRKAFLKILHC

bovine β-arrestin-1 (Rluc8-bβ-arrestin-1-Sp1) (from UniProt P17870 1-418) (natural protein)
Response, arrestin translocation to the plasma membrane (BRET, AUC of 25 min); 10 μM dopamine [1]: 23.4 ΔBRET.sec | Response, arrestin translocation to the plasma membrane (BRET, AUC of 25 min); 10 μM dopamine; GRK2 co-expressed [1]: 95 ΔBRET.sec | Emax, arrestin translocation to the plasma membrane (BRET, AUC of 25 min); agonist AVP [2]: 177 ΔBRET.sec | Response, arrestin translocation to the plasma membrane (BRET, AUC of 25 min); 1 μM CP55,940 (significantly different from vehicle) [3]: 21.5 ΔBRET.sec | Response, arrestin translocation to the plasma membrane (BRET, AUC of 25 min); 1 μM CP55,940; GRK2 co-expressed (significantly different from vehicle) [3]: 29 ΔBRET.sec | Response, arrestin translocation to the plasma membrane (BRET, AUC of 25 min); 10 μM JWH-015 (not significantly different from vehicle) [3]: 14.2 ΔBRET.sec | Response, arrestin translocation to the plasma membrane (BRET, AUC of 25 min); 10 μM JWH-133 (not significantly different from vehicle) [3]: 7.4 ΔBRET.sec | Response, arrestin translocation to the plasma membrane (BRET, AUC of 25 min); 10 μM THC (not significantly different from vehicle) [3]: 10.8 ΔBRET.sec | Response, arrestin translocation to the plasma membrane (BRET, AUC of 25 min); 10 μM WIN55,212-2 (significantly different from vehicle) [3]: 22.2 ΔBRET.sec | Response, arrestin translocation to the plasma membrane (BRET, AUC of 25 min); 31.6 μM 2-AG (not significantly different from vehicle) [3]: 14.2 ΔBRET.sec | Response, arrestin translocation to the plasma membrane (BRET, AUC of 25 min); 31.6 μM 2-AG; GRK2 co-expressed (significantly different from vehicle) [3]: 17.5 ΔBRET.sec | Response, arrestin translocation to the plasma membrane (BRET, AUC of 25 min); 1 μM CP55,940 (significantly different from vehicle) [4]: 20.8 ΔBRET.sec | Response, arrestin translocation to the plasma membrane (BRET, AUC of 25 min); 1 μM CP55,940; GRK2 co-expressed (significantly different from vehicle) [4]: 44.4 ΔBRET.sec | Response, arrestin translocation to the plasma membrane (BRET, AUC of 25 min); 10 μM AEA (no significant response) [4]: 6.9 ΔBRET.sec | Response, arrestin translocation to the plasma membrane (BRET, AUC of 25 min); 10 μM BAY (no significant response) [4]: 0.7 ΔBRET.sec | Response, arrestin translocation to the plasma membrane (BRET, AUC of 25 min); 10 μM THC (no significant response) [4]: 6.5 ΔBRET.sec | Response, arrestin translocation to the plasma membrane (BRET, AUC of 25 min); 10 μM WIN55,212-2 (significantly different from vehicle) [4]: 48.5 ΔBRET.sec | Response, arrestin translocation to the plasma membrane (BRET, AUC of 25 min); 31.6 μM 2-AG (significantly different from vehicle) [4]: 33.7 ΔBRET.sec | Response, arrestin translocation to the plasma membrane (BRET, AUC of 25 min); 31.6 μM 2-AG; GRK2 co-expressed (significantly different from vehicle) [4]: 49.1 ΔBRET.sec

CCCCC/C=C\C/C=C\C/C=C\C/C=C\CCCC(=O)OC(CO)CO [2-AG]
EC50 (CB2 (hCB2) [5]): 1860 nM

CCCCCc1cc(O)c2c(c1)OC(C)(C)[C@@H]1CCC(C)=C[C@@H]21 [THC]
CB2 / Response ± SEM (ΔBRET.sec) (CB2 (hCB2) [6]): 14.4 ± 2.8 ΔBRET.sec
